Where no end group is shown, it is not given here.
Target: Full-length human menin (human, UniProt O00255 1-610)
Test: fluorescence polarisation

Full-length human menin, sequence (O00255 whole entry): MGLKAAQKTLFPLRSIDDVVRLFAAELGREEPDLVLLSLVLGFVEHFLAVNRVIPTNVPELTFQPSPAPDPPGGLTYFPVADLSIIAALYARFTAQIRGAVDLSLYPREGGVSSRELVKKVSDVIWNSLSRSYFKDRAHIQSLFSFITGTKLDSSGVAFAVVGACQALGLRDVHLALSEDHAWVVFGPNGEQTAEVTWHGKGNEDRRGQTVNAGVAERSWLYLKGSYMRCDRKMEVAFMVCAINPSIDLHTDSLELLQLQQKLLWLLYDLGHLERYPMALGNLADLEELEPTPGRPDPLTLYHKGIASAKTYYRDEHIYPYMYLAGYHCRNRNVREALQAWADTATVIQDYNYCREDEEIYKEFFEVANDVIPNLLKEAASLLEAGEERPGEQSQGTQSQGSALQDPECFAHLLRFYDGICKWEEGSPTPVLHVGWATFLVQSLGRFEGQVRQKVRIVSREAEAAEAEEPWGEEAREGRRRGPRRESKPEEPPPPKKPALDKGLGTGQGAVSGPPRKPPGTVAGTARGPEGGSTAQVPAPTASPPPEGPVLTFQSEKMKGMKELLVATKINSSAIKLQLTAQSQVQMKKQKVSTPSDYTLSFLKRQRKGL

binding result: binds
Binder: SCRWRFPARPGT (peptide, UniProt Q03164 4-15, looked up, also: FITC label, position not given here) [FITC-MBM1 peptide of MLL (residues 4-15)]

Source: publication PMC4584387 (Journal of Medicinal Chemistry, 2015)
